One data set addresses HuR12 (UniProt Q15717 18-184). Kind of data set: SPR. Background: SPR reads the build-up and loss of mass on a sensor chip optically.
Data set [1] deals with T1, TIAR12 (UniProt Q01085 1-181).
T1 sequence: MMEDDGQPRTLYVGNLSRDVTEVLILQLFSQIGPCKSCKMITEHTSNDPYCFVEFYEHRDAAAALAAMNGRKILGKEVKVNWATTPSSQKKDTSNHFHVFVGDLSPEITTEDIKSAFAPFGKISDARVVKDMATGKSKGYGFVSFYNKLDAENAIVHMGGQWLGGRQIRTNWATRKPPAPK
Put plainly: SPR.

The target in the next data set is HuR123 (UniProt Q15717 1-306). Kind of data set: SPR.
For a further data set, the target named is T2, TIAR123 (UniProt Q01085 1-283).
T2 sequence: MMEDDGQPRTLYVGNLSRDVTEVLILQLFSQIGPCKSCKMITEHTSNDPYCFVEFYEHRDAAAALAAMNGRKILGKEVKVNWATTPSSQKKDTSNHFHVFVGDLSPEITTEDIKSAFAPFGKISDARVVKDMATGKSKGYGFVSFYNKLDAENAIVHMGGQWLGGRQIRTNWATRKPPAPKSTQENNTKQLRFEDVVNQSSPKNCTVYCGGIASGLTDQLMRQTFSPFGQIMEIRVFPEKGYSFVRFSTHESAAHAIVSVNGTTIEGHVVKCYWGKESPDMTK
Kind of data set: SPR.

Data set [2] addresses T1, TIAR12. Put plainly: size exclusion chromatography. (In general: Size exclusion chromatography separates by hydrodynamic size, large species first.)
Data set [3] addresses T1, TIAR12. Put plainly: SPR. The source holds these as a separate data set.

Where two headings read alike, the source gives them in different places.

Chain of HuR12 (Q15717 18-184): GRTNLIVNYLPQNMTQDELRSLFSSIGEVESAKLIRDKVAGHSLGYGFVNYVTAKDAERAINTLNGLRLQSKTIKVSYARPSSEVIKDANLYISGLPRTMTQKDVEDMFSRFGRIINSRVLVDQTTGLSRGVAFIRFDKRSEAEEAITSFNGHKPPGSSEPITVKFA
Chain of HuR123 (Q15717 1-306): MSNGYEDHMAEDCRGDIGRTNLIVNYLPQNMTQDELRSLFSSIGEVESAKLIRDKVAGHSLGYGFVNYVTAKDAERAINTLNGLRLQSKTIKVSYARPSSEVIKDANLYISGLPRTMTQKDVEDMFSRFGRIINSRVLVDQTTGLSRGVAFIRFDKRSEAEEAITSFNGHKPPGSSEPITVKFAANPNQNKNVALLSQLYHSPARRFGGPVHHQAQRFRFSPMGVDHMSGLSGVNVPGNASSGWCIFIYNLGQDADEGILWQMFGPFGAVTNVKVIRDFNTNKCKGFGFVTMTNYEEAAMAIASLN

B1: U-rich DNA 20-mer (ssDNA)
DNA: UUUUUUUUUUUUUUUUUUUU
modifications: all deoxyuridine (2'-deoxy)
As usually defined, the Kd is the constant that tells how readily two partners part at equilibrium. A low value points to higher affinity. As for B1, the Kd was found to be 20600 ± 1570 nM with HuR12 and 21.7 ± 0.38 nM in the data set with TIAR12 [1].

B2: AU-rich RNA 28-mer (TNF-alpha ARE) (ssRNA)
RNA: GGGGGGUAUUUAUUAUUUAUUUAGGGGG
Regarding B2, the Kd with HuR123 worked out at 0.2 ± 0.007 nM; with HuR12 it was 506 ± 13.1 nM; with TIAR12 [1], 42.5 ± 0.63 nM; with TIAR123, 14.1 ± 0.22 nM.

B3: U-rich RNA 13-mer (solution) (ssRNA)
RNA: UUUUUUUUUUUUU
Turning to B3, in the data set with TIAR12 [2], the binding result was “binds”.

B4: U-rich RNA 13-mer (ssRNA)
RNA: UUUUUUUUUUUUU
B4 returned a Kd with HuR12 of 195 ± 6.3 nM.

B5: U-rich RNA 8-mer (ssRNA)
RNA: UUUUUUUU
In turn, B5 came in with a Kd in the data set with HuR12 of 4700 ± 116 nM.

B6: U-rich RNA 28-mer (ssRNA)
RNA: GGGGGGUUUUUUUUUUUUUUUUUGGGGG
Consider B6, for which, in the data set with HuR123, binding was put at a Kd of 0.05 ± 0.001 nM.

B7: U-rich RNA 17-mer (ssRNA)
RNA: UUUUUUUUUUUUUUUUU
In turn, B7 returned a Kd in the data set with HuR12 of 40 ± 24 nM.

B8: T-rich DNA 20-mer (ssDNA)
DNA: TTTTTTTTTTTTTTTTTTTT
For B8, the Kd in the data set with TIAR12 [3] was found to be 3.81 ± 0.74 nM; with HuR12 it was 2640 ± 82.3 nM.

The values are drawn from paper PMC3035456.
